Source: the supplement of paper PMC10724198
± gives the standard deviation of the averaged measurements.

Tested on: Saccharomyces cerevisiae
Test: protein stability index of tFT-peptide fusion (C-terminal peptide) (PSI (0-1 scale)); higher = more stable (slower turnover)
Details: temperature: 30 C
Procedure: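 MPS profiling in S. cerevisiae of the yeast C-terminome library: the last 12 aa of each annotated ORF are fused to the C-terminus of a sfGFP-mCherry timer, after a GGGS linker. Cells are FACS-sorted into 8 mCherry/sfGFP bins and deep-sequenced. PSI runs from 0 (unstable) to 1 (stable); wild type and das1Δ backgrounds, two technical replicates each.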

[1] = genetic background: das1 deletion

Row | Sequence | protein stability index [1] | protein stability index (genetic background: wild type)
1 | LSDLHIKEAKID [OGG1 C-terminal 12 aa] | 0.7101 ± 0.0056 | 0.568 ± 0.021
2 | SRIQNASASGEI [TIM13 C-terminal 12 aa] | 0.685 ± 0.015 | 0.715 ± 0.015
3 | LPKPAGWQNHIG [KTR1 C-terminal 12 aa] | 0.7014 ± 0.0053 | 0.68 ± 0.009
4 | PKGGNYVSRYQR [THO2 C-terminal 12 aa] | 0.695 ± 0.012 | 0.6623 ± 0.0015
5 | TFKPIYLWALDL [SPP382 C-terminal 12 aa] | 0.6938 ± 0.0043 | 0.6753 ± 0.0057
6 | ACFVFSPSAMVT [BRP1 C-terminal 12 aa] | 0.6493 ± 0.0022 | 0.637 ± 0.028
7 | NINGTTAAVDVN [PAP1 C-terminal 12 aa] | 0.661 ± 0.0093 | 0.658 ± 0.01
8 | SKADSYRSVIRH [DLT1 C-terminal 12 aa] | 0.667 ± 0.037 | 0.675 ± 0.023
9 | GDLVNAIMSLSK [EGD2 C-terminal 12 aa] | 0.696 ± 0.013 | 0.696 ± 0.025
10 | PSPTALANLARK [SGF29 C-terminal 12 aa] | 0.677 ± 0.039 | 0.693 ± 0.041
11 | KTYIKNDVEIFN [HBN1 C-terminal 12 aa] | 0.715 ± 0.025 | 0.726 ± 0.067
12 | IVKIIRFNHASV [YHL048C-A C-terminal 12 aa] | 0.685 ± 0.016 | 0.658 ± 0.034
13 | CDIQEEQVDITA [PUP1 C-terminal 12 aa] | 0.695 ± 0.0088 | 0.682 ± 0.015
14 | LISEFQKKQAKK [MEF1 C-terminal 12 aa] | 0.7194 ± 0.0033 | 0.691 ± 0.038
15 | IVNDVWLPFQKW [DSD1 C-terminal 12 aa] | 0.729 ± 0.03 | 0.701 ± 0.02
16 | LIDLCCSCAGGM [MNC1 C-terminal 12 aa] | 0.685 ± 0.012 | 0.643 ± 0.0049
17 | NLELGGLNMDFL [PGD1 C-terminal 12 aa] | 0.7171 ± 0.0022 | 0.708 ± 0.047
18 | PCRYLELRKFGR [TPN1 C-terminal 12 aa] | 0.7005 ± 0.0046 | 0.74 ± 0.045
19 | KLQPQVYKPWSL [RSC8 C-terminal 12 aa] | 0.6842 ± 0.0019 | 0.703 ± 0.0092
20 | EAQLSRSEVLLV [COS2 C-terminal 12 aa] | 0.648 ± 0.0028 | 0.6242 ± 0.0027
21 | LNDLSNVRHSKT [HER1 C-terminal 12 aa] | 0.6893 ± 0.0035 | 0.675 ± 0.022

Row | Sequence | protein stability index [1] | protein stability index (genetic background: wild type)
22 | YLKNYFKTKHII [ERV25 C-terminal 12 aa] | 0.702 ± 0.018 | 0.185 ± 0.0056
23 | TSAFNKLHIVEE [YAK1 C-terminal 12 aa] | 0.712 ± 0.024 | 0.67 ± 0.045
24 | SFVKIQDAIKKT [MRPL9 C-terminal 12 aa] | 0.7417 ± 0.0063 | 0.627 ± 0.015
25 | KEWKEKEKTGKQ [MPC1 C-terminal 12 aa] | 0.728 ± 0.012 | 0.702 ± 0.022
26 | FLVNTTNKKESD [YIL092W C-terminal 12 aa] | 0.6861 ± 0.004 | 0.693 ± 0.024
27 | IMALIAESGDDF [ERV14 C-terminal 12 aa] | 0.673 ± 0.021 | 0.7007 ± 0.0027
28 | FDTSAQSDRKHS [DCV1 C-terminal 12 aa] | 0.719 ± 0.011 | 0.692 ± 0.018
29 | NQYANNLNLIDM [YAP1801 C-terminal 12 aa] | 0.694 ± 0.026 | 0.672 ± 0.029
30 | LRIVACNSKKSE [TOA2 C-terminal 12 aa] | 0.673 ± 0.027 | 0.649 ± 0.022
31 | YNSDSGSYYTLM [YOR192C-C C-terminal 12 aa] | 0.704 ± 0.017 | 0.731 ± 0.097
32 | KERTHLFQLIRK [EFM6 C-terminal 12 aa] | 0.699 ± 0.0076 | 0.6923 ± 0.0018
33 | SLDQEIQSLLSK [GPX2 C-terminal 12 aa] | 0.6903 ± 0.0018 | 0.654 ± 0.028
34 | SLDDFGVDVDME [PFA4 C-terminal 12 aa] | 0.711 ± 0.016 | 0.683 ± 0.016
35 | IFLMKKAYDLQI [EFM1 C-terminal 12 aa] | 0.675 ± 0.011 | 0.657 ± 0.02
36 | NTMGKSGRHNIT [YOR282W C-terminal 12 aa] | 0.6851 ± 0.0044 | 0.685 ± 0.032
37 | LSDLRAWTLKVA [YDR491C C-terminal 12 aa] | 0.7058 ± 0.0027 | 0.329 ± 0.0064
38 | GDENFVILEFEC [OAZ1 C-terminal 12 aa] | 0.7 ± 0.019 | 0.732 ± 0.036
39 | EETEAQAEPVEA [RPS3 C-terminal 12 aa] | 0.687 ± 0.013 | 0.663 ± 0.021
40 | PLMFHCTRWEVD [GEP5 C-terminal 12 aa] | 0.6911 ± 0.0033 | 0.741 ± 0.064
41 | CICSGMLFEMDG [SIN4 C-terminal 12 aa] | 0.696 ± 0.011 | 0.716 ± 0.067
42 | KPGLTVYSIELL [SMP3 C-terminal 12 aa] | 0.6898 ± 0.0048 | 0.692 ± 0.011

Row | Sequence | protein stability index [1] | protein stability index (genetic background: wild type)
43 | DHDVSLEEVINI [MCY1 C-terminal 12 aa] | 0.722 ± 0.034 | 0.706 ± 0.02
44 | KQAQEGTKNLKI [PAC10 C-terminal 12 aa] | 0.714 ± 0.055 | 0.666 ± 0.029
45 | PAKVGIVKGEEN [MGE1 C-terminal 12 aa] | 0.693 ± 0.021 | 0.709 ± 0.015
46 | YPGEAKRPQERF [COX10 C-terminal 12 aa] | 0.6898 ± 0.0058 | 0.7 ± 0.047
47 | GFLGIRWGPRKD [TIM21 C-terminal 12 aa] | 0.7247 ± 0.00099 | 0.6861 ± 0.006
48 | SSSLSLESFMKS [SNM1 C-terminal 12 aa] | 0.748 ± 0.036 | 0.725 ± 0.019
49 | SRSNSHRTFFKR [FPK1 C-terminal 12 aa] | 0.737 ± 0.053 | 0.714 ± 0.043
50 | EKTRKNISKFFS [CPR7 C-terminal 12 aa] | 0.713 ± 0.022 | 0.707 ± 0.013
51 | RKGWTGFKKVFK [GYP5 C-terminal 12 aa] | 0.695 ± 0.025 | 0.699 ± 0.061
52 | FSVEQREKPSNN [GRX6 C-terminal 12 aa] | 0.69394 ± 0.0003 | 0.69949 ± 0.00033
53 | IFCFDNYRSCYC [YKL031W C-terminal 12 aa] | 0.7071 ± 0.0034 | 0.678 ± 0.038
54 | RNRLENISTMVI [YIA6 C-terminal 12 aa] | 0.71 ± 0.012 | 0.709 ± 0.019
55 | IEQEAKQRERNQ [COA6 C-terminal 12 aa] | 0.6993 ± 0.0011 | 0.701 ± 0.02
56 | AIQEYNARYPLN [ABF2 C-terminal 12 aa] | 0.708 ± 0.0085 | 0.707 ± 0.021
57 | KAEASEAAHDEL [CPR5 C-terminal 12 aa] | 0.695 ± 0.0055 | 0.676 ± 0.038
58 | TKGGNAGTKAYN [RTC3 C-terminal 12 aa] | 0.679 ± 0.011 | 0.666 ± 0.041
59 | HKGNGTDKVFVF [AIM33 C-terminal 12 aa] | 0.7139 ± 0.001 | 0.693 ± 0.017
60 | KGATIKEIVLND [ATH1 C-terminal 12 aa] | 0.69826 ± 0.00054 | 0.672 ± 0.012
61 | HNLHSYEKRLHN [IMD2 C-terminal 12 aa] | 0.7234 ± 0.0046 | 0.742 ± 0.066
